Laboratory results taken from patent publication US20230348564A1, “ANTI-CANCER PROTEINS” (UNICHEM LABORATORIES LTD, priority 2020, published 2023).

Key:
PANC-1 = experiment: JC-1 assay, mitochondrial membrane depolarization; assay type: cell-based, Human; conditions: 16h
Method: (§1) To evaluate the in vitro apoptotic effect of recombinant lectin having the amino acid sequence of SEQ ID NO.2 in MDA-MB-231 (breast cancer) and PANG-1 (pancreatic cancer) cell line by JC-1 assay, an increase in mitochondrial membrane depolarization was used as a marker of apoptosis. […] 2 using JC-1 dye based method. […] The cell lines were grown in Dulbecco's Modified Eagle Medium (DMEM)+10% heat inactivated FBS at 37° C. (95% humidity and 5% CO2). […] Recombinant lectin having the amino acid sequence of SEQ ID NO. 2 was diluted in serum free medium. Doxorubicin was used as positive control and stock solution was prepared in dimethyl sulfoxide (DMSO). […] The cells were then incubated overnight under growth conditions to allow the cell recovery and exponential growth. Cells were treated with the recombinant lectin of SEQ ID NO. […] Following respective treatments the cells in the above plate were incubated for 16h in CO2 incubator at 37° C., 5% CO2 and 95% humidity.
(§2) After 16h of incubation, the supernatants were discarded and 100 μL of JC1-dye solution (prepared by diluting 1 mM DMSO stock in to 10 μM in 1×PBS) was added to each well. The cells were then incubated with the dye in CO2 incubator at 37° C. for 15 min. After 15 min of incubation, the supernatant was removed and the cells were washed twice with 1×PBS and then 100 μL of 1×PBS was added to each well. Red fluorescence (excitation 550 nm, emission 600 nm) and green fluorescence (excitation 485 nm, emission 535 nm) were measured using Biotek Synergy FIT plate reader. The mitochondrial membrane potential […] was calculated as the ratio of intensity of red fluorescence to intensity of green fluorescence described as follows:
(§3) ΔΨM=Intensity of red fluorescence/Intensity of green fluorescence
(§4) The percentage decrease of Red fluorescence/Green fluorescence corresponding to each treatment was calculated using the following formula:
(§5) Where X=Δψm corresponding to treated cells R=ΔΨM corresponding to control wells.

MDA-MB-231 = experiment: JC-1 assay, mitochondrial membrane depolarization; assay type: cell-based, Human; conditions: 16h
Method: as §1, §2, §3, §4, §5

B1: SEQ ID NO. 2: recombinant lectin; variant of the S. rolfsii lectin amino acid sequence (reported as Rec-2 in WO 2010/095143) (protein)
chain: TYKITVRVYQTNPDAFFHPVEKTVWKYANGGTWTITDDQHVLTMGGSGTSGTLRFHADNGESFTATFGVHNYKRWCDIVTNLAADETGMVINQQYYSQKNREEARERQLSNYQVKNAKGRNFQIVYTEAEGNDLHANLIIG
modifications: In vitro synthesis
Average Green fluorescence (PANC-1; 2.5 μg/mL): 315.0
Average Red fluorescence (PANC-1; 2.5 μg/mL): 595.7
Percentage decrease in MMP (%) (PANC-1; 2.5 μg/mL): 9.5%
Red/Green ratio (PANC-1; 2.5 μg/mL): 1.89
depolarization of mitochondrial membrane (PANC-1; 2.5 μg/mL-80 μg/mL): 9.5%-51.7%
Average Green fluorescence (PANC-1; 5 μg/mL): 293.3
Average Red fluorescence (PANC-1; 5 μg/mL): 452.3
Percentage decrease in MMP (%) (PANC-1; 5 μg/mL): 26.2%
Red/Green ratio (PANC-1; 5 μg/mL): 1.54
Average Green fluorescence (PANC-1; 10 μg/mL): 271.7
Average Red fluorescence (PANC-1; 10 μg/mL): 301.7
Percentage decrease in MMP (%) (PANC-1; 10 μg/mL): 46.9%
Red/Green ratio (PANC-1; 10 μg/mL): 1.11
Average Green fluorescence (PANC-1; 20 μg/mL): 234.3
Average Red fluorescence (PANC-1; 20 μg/mL): 265.7
Percentage decrease in MMP (%) (PANC-1; 20 μg/mL): 45.8%
Red/Green ratio (PANC-1; 20 μg/mL): 1.13
Average Green fluorescence (PANC-1; 40 μg/mL): 263.3
Average Red fluorescence (PANC-1; 40 μg/mL): 266.0
Percentage decrease in MMP (%) (PANC-1; 40 μg/mL): 51.7%
Red/Green ratio (PANC-1; 40 μg/mL): 1.01
Average Green fluorescence (PANC-1; 80 μg/mL): 257.0
Average Red fluorescence (PANC-1; 80 μg/mL): 272.0
Percentage decrease in MMP (%) (PANC-1; 80 μg/mL): 49.4%
Red/Green ratio (PANC-1; 80 μg/mL): 1.06
Average Green fluorescence (MDA-MB-231; 2.5 μg/mL): 703.0
Average Red fluorescence (MDA-MB-231; 2.5 μg/mL): 769.7
Percentage decrease in MMP (%) (MDA-MB-231; 2.5 μg/mL): 54.1%
Red/Green ratio (MDA-MB-231; 2.5 μg/mL): 1.09
depolarization of mitochondrial membrane (MDA-MB-231; 2.5 μg/mL-80 μg/mL): 19.8%-54.1%
Average Green fluorescence (MDA-MB-231; 5 μg/mL): 560.0
Average Red fluorescence (MDA-MB-231; 5 μg/mL): 709.3
Percentage decrease in MMP (%) (MDA-MB-231; 5 μg/mL): 46.9%
Red/Green ratio (MDA-MB-231; 5 μg/mL): 1.27
Average Green fluorescence (MDA-MB-231; 10 μg/mL): 596.3
Average Red fluorescence (MDA-MB-231; 10 μg/mL): 1098.3
Percentage decrease in MMP (%) (MDA-MB-231; 10 μg/mL): 22.8%
Red/Green ratio (MDA-MB-231; 10 μg/mL): 1.84
Average Green fluorescence (MDA-MB-231; 20 μg/mL): 497.3
Average Red fluorescence (MDA-MB-231; 20 μg/mL): 929.3
Percentage decrease in MMP (%) (MDA-MB-231; 20 μg/mL): 21.7%
Red/Green ratio (MDA-MB-231; 20 μg/mL): 1.87
Average Green fluorescence (MDA-MB-231; 40 μg/mL): 535.7
Average Red fluorescence (MDA-MB-231; 40 μg/mL): 1009.0
Percentage decrease in MMP (%) (MDA-MB-231; 40 μg/mL): 21.0%
Red/Green ratio (MDA-MB-231; 40 μg/mL): 1.88
Average Green fluorescence (MDA-MB-231; 80 μg/mL): 500.3
Average Red fluorescence (MDA-MB-231; 80 μg/mL): 957.3
Percentage decrease in MMP (%) (MDA-MB-231; 80 μg/mL): 19.8%
Red/Green ratio (MDA-MB-231; 80 μg/mL): 1.91
